From patent US20250215098A1 (QYUNS THERAPEUTICS, published 2025)

T1: human IL-36R on HT29 cells, HT29 reporter gene cells, A431 cells and human PBMC (human, UniProt Q9HB29 20-575)
T1 sequence (looked up): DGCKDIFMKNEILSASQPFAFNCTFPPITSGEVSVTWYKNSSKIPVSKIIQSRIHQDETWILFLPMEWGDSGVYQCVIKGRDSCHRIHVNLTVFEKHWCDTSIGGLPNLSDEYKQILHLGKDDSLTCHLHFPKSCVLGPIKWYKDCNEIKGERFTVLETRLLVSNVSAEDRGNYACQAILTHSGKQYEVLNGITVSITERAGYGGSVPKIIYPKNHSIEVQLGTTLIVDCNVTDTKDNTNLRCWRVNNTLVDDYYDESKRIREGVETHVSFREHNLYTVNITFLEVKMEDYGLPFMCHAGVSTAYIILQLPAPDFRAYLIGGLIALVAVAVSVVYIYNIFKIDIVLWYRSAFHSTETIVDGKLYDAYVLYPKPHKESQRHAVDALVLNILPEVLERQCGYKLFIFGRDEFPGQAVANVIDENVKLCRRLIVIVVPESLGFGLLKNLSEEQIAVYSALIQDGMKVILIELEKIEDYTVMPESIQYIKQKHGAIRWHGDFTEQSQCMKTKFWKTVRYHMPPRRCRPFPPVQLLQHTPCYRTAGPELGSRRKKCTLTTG

B1: QX009N (HZD25-54) (antibody, human IgG1, kappa, L234A L235A, V domains shown)
VH: EVQLVESGGGLVQPGGSLRLSCAASGIDLSNYAMGWVRQAPGKGLEWVGYISGGGSAYYASWAKGRFTISRDNSKNTLYLQMNSLRAEDTAVYYCARWAIKSYFFGMDLWGQGTLVTVSS
VL: DIQMTQSPSSVSASVGDRVTITCQASEYISSYLAWYQQKPGKAPKLLIYQASTLASGVPSRFSGSGSGTDFTLTISSLQPEDFATYYCQTNNAIHTYGGAFGGGTKVEIKR
B2: Spesolimab (expressed from the B6 sequence of patent US9023995B2) (antibody, V domains shown)
VH: QVQLVQSGAEVKKPGASVKVSCKASGYSFTSSWIHWVKQAPGQGLEWMGEINPGNVRTNYNENFRNKVTMTVDTSISTAYMELSRLRSDDTAVYYCTVVFYGEPYFPYWGQGTLVTVSS
VL: QIVLTQSPGTLSLSPGERATMTCTASSSVSSSYFHWYQQKPGQAPRLWIYRTSRLASGVPDRFSGSGSGTDFTLTISRLEPEDAATYYCHQFHRSPLTFGAGTKLEIK

Molecular target: T1, human IL-36R on HT29 cells, HT29 …
Experiment: cell-based or functional assay

Binder	IC50 in inhibiting CXCL-1 release from A431 cells induced by the human IL-36 (α, β, γ)	IC50 in inhibiting CXCL-1 release from HT29 cells induced by the human IL-36 (α, β, γ)	IC50 in inhibiting IL-8 release from A431 cells induced by the human IL-36 (α, β, γ)	IC50 in inhibiting IL-8 release from HT29 cells induced by the human IL-36 (α, β, γ)	IC50 in inhibiting IL-8 release from human PBMC cells induced by the human IL-36β	IC50 in inhibiting STAT3 phosphorylation in HT29 reporter cells induced by human IL-36 (α, β, γ)
B1	4.12 ng/mL	2.21 ng/mL	2.89 ng/mL	1.53 ng/mL	4.69 ng/mL	2.16 ng/mL
B2	12.3 ng/mL	12.3 ng/mL	11.5 ng/mL	11.5 ng/mL	26.6 ng/mL	15.7 ng/mL
